Residue numbers refer to the chain shown, from its start. Each block holds one binder with its values, some of them ahead of it.
What was measured:
[1] = biological target: T1, Recombinant human MMR (R&D systems) (human, UniProt P22897 19-1383); test: PE-ELISA, periplasmic extract on coated human MMR, OD405 at least 3x over milk-blocking proteins
T1 construct: Bought protein (R&D Systems #2534) coated on ELISA plates; also called hMMR; MRC1
T1 sequence: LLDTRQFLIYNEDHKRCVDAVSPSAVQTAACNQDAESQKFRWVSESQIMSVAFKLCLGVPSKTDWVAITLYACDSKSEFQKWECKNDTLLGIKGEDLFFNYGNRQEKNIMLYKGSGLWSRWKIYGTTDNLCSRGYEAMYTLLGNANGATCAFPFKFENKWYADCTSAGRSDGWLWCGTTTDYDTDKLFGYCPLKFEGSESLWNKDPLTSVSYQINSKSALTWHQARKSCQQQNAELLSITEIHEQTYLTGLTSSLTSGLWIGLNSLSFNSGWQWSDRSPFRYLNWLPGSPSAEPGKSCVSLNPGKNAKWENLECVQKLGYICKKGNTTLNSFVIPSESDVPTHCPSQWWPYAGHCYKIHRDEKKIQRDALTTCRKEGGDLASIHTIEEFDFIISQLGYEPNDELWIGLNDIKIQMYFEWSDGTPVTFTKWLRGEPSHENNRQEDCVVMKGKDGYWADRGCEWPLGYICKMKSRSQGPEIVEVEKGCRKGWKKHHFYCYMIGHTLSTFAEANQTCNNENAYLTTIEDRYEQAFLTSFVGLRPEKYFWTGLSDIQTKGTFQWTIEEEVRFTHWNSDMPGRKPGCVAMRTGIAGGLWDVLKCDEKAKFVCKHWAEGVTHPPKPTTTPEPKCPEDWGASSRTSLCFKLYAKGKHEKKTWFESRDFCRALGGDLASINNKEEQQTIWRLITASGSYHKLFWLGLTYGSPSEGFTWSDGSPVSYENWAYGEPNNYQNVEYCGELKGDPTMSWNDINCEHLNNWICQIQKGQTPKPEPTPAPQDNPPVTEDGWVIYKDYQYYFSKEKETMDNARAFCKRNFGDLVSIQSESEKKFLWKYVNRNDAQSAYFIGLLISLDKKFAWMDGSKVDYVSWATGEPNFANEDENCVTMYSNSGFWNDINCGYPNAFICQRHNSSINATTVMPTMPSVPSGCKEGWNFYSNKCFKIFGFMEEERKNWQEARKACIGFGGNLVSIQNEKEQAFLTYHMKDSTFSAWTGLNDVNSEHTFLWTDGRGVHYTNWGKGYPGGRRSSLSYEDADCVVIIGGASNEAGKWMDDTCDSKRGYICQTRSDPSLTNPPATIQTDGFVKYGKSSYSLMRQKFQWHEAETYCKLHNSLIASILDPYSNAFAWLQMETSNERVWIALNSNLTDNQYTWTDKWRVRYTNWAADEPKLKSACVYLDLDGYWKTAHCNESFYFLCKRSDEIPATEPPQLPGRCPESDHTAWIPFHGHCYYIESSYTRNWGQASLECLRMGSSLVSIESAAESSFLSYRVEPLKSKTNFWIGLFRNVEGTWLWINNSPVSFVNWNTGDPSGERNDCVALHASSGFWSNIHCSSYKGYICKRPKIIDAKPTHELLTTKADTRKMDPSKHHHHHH

[2] = biological target: T1, Recombinant human MMR (R&D systems); test: PE-ELISA, periplasmic extract on coated human MMR
[3] = biological target: T2, Recombinant mouse MMR (R&D systems) (mouse, UniProt Q61830 20-1388); test: PE-ELISA, periplasmic extract on coated mouse MMR
T2 construct: Bought recombinant extracellular portion of mouse MMR with a C-terminal His tag; It was immobilized on the CM5 chip for SPR and coated on plates for PE-ELISA; The SPR methods say only 'MMR'; also called mMMR; recombinant MMR
T2 sequence: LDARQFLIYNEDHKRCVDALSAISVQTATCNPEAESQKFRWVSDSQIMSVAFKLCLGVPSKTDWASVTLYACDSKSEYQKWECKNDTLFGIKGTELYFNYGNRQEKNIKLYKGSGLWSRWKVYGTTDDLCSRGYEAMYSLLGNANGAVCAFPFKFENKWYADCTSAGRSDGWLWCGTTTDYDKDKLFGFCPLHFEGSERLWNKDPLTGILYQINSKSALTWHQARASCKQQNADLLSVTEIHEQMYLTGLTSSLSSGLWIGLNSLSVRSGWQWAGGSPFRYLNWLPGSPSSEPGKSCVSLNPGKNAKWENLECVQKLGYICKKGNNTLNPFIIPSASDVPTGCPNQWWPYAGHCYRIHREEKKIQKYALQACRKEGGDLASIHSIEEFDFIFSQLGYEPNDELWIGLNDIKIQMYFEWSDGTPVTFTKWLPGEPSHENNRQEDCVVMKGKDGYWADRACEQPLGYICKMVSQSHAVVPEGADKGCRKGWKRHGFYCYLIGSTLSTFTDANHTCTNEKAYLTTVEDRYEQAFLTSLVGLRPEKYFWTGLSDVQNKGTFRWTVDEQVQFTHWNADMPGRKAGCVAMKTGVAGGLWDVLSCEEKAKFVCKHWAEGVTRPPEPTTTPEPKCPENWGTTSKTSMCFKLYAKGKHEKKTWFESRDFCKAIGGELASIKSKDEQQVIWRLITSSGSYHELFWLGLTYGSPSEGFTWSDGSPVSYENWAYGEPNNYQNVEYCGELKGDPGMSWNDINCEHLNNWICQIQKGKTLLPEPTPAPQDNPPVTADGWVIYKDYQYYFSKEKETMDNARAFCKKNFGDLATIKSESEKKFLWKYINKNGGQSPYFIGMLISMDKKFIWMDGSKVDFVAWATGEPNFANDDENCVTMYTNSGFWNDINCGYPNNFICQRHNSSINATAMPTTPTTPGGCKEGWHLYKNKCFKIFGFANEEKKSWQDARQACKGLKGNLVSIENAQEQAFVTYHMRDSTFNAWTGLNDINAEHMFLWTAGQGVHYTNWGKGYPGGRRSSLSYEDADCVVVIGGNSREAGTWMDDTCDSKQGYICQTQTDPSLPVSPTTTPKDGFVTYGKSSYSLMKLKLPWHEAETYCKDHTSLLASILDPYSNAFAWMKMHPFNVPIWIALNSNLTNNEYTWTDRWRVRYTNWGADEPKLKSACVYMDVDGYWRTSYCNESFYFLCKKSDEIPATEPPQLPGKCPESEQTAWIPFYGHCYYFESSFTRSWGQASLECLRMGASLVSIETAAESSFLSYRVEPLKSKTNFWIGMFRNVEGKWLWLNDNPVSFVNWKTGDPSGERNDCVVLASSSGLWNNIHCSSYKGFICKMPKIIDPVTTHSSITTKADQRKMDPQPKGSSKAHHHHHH

binding result [2]: binds
binding result [3]: binds
B9: NbhmMMRm20.52 (VHH)
VHH: QVQLQESGGGLVQAGGSLRLSCAASGRIFSAYAMGWFRQAPGKEREFVAAISRSGDSTDYADSVKGRFTISRDSAKNMVYLQMNSLKPEDTALYHCAARTVSAPPSAAWGYGYWGQGTQVTVSS
notes: Tested as a periplasmic extract in PE-ELISA

binding result [2]: binds
binding result [3]: binds
B10: NbhmMMRm6.71 (VHH)
VHH: QVQLQESGGGLVQAGGSLRLSCAASGGTFDDSVIGWFRQAPGKEREGVSCISSNDGTTHYASPVKGRFTISSDNAKNTVYLQMNSLKPEDTAVYYCAAETPSIGSPCTSASYDYWGQGTQVTVSS
notes: as for B9

binding result [1]: binds
B11: NbhMMRm2.15 (VHH)
VHH: QVQLQESGGGLVQPGESLRLSCKLSGFTLDYYDIGWFRQAPGKEREGVSCISSIGGSANYADSVKGRFTISRDNVKNTVYLQMNSLKPEDTAIYYCAAEAQTPYNDGDCTRASYDYWGQGIQVTVSS
notes: as for B9

binding result [2]: binds
binding result [3]: binds
B13: NbhmMMRm3.49 (VHH)
VHH: QVQLQESGGGLVQPGGSLRLSCAASGFSLDYYAIGWFRQAPGKEREGISCISYKGGSTTYADSVKGRFTISKDNAKNTAYLQMNSLKPEDTGIYSCAAGFVCYNYDYWGQGTQVTVSS
notes: as for B9

binding result [2]: binds
binding result [3]: binds
B14: NbhmMMRm22.84 (VHH)
VHH: QVQLQESGGGLVQPGGSLRLSCAASGRTFSNYVNYAMGWFRQFPGKEREFVASISWSSVTTYYADSVKGRFTISRDNAKNTVYLQMNSLKPEDTAVYYCAAHLAQYSDYAYRDPHQFGAWGQGTQVTVSS
notes: as for B9

binding result [2]: binds
binding result [3]: binds
B15: NbhmMMRm19.52 (VHH)
VHH: QVQLQESGGGLVQAGGSLRLSCLASGDTFSNYVMAWFRQAPGKEREIVAAIRLSGARYVPDSVKGRFTISRDNAKNAMYLQMTSLKPEDTARYYCAAGHTWGQYAYWGQGTQVTVSS
notes: as for B9

binding result [2]: binds
binding result [3]: binds
B16: NbhmMMRm17.72 (VHH)
VHH: QVQLQESGGGLVQPGGSLRLSCAASGSIVSINAMGWYRQAPGKQRELVALVTGSGRTNLADSVKGRFTISRDNAKNTVYLQMNSLKPEDTAVYYCNVLVIGPLEGYDYWGQGTQVTVSS
notes: as for B9

binding result [2]: binds
binding result [3]: binds
B17: NbhmMMRm24.31 (VHH)
VHH: QVQLQESGGGLVQPGGSLRLSCTATGFTLKNHHIGWLRQAPGKEREGVASINSSGGSTNYADSVQGRFTISRDNAKNTVFLQMNSLKSEDTAVYYCARLRRYYGLNLDPGSYDYWGQGTQVTVSS
notes: as for B9

The next lines start with the binder.

B1: NbhMMRm1.33 (VHH)
VHH: QVQLQESGGGLVQPGGSLRLSCAASGFTLDNYTVAWFRQAPGKEREGVSCISSSGGSTNYADSVKGRFTISRDNSKKSVYLQMNSLKPEDTAIYTCAAERAPPYYSGYYFFDSTCVAASYDYWGQGTQVTVSS
notes: as for B9
binding result [1]: binds

B2: NbhmMMRm15.49 (VHH)
VHH: QVQLQESGGGLVQAGGSLRLSCAASGSTFSINNMGWYRQAPGKQRELVAGITGGNTHYADSVKGRFTISRDNAKNTMYLQMNSLKPEDTAVYYCNANWGAYWGQGTQVTVSS
notes: as for B9
binding result [2]: binds
binding result [3]: binds

B3: NbhMMRm5.38 (VHH)
VHH: QVQLQESGGGLVQAGGSLRLSCAASGFTDDDYDIGWFRQAPGKEREGVSCISSSDGSTYYADSVKGRFTISSDNAKNTVYLQMNSLKPEDTAVYYCAADFFRWDSGSYYVRGCRHATYDYWGQGTQVTVSS
notes: as for B9
binding result [1]: binds

B4: NbhMMRm10.19 (VHH)
VHH: QVQLQESGGGLVQPGGSLKLSCAASGSIFSIKTMGWYRQAPGKQRELVAAITSGGSTNYADSVKGRFTISRDNAKNTVYLQMNSLKPEDTAVYYCNADGVVAWDQPYDNYWGQGTQVTVSS
notes: as for B9
binding result [1]: binds

B5: NbhmMMRm10.79 (VHH)
VHH: B4 VHH with I51V, T52S, T77A
notes: as for B9
binding result [2]: binds
binding result [3]: binds

B6: NbhmMMRm14.4 (VHH)
VHH: QVQLQESGGGLVQAGDSLRLSCAASGRTFSINYMGWYRQAPGKQRELVAAITSGSGSTNYADSVKGRFTISRDNAKNTMYLQMNSLKPEDTAVYYCNADMDSSLSGGYVDVWGQGTQVTVSS
notes: as for B9
binding result [2]: binds
binding result [3]: binds

B7: NbhmMMRm14.93 (VHH)
VHH: B6 VHH with N77K
notes: as for B9
binding result [2]: binds
binding result [3]: binds

B8: NbhMMRm12.6 (VHH)
VHH: QVQLQESGGGLVQPGGSLRLSCVVSGSFLSINHMGWYRQVSGEQRELVAAITSGGSTNYADSVKGRFTISRDSAKNTVYLQMNSLKPEDTAVYYCNADALTMLPPFDFWGQGTQVTVSS
notes: as for B9
binding result [1]: binds

B12: NbhMMRm3.1 (VHH)
VHH: B13 VHH with S28T, S85N, S95Y, Q110P
notes: as for B9
binding result [1]: binds

— patent US20120301394A1 (published 2012)
